Data on one molecule can be found in article PMC4914250.

The target of series [1] is WT p53 full length (His-tagged) (UniProt P04637 1-393). Nature of the series: pull-down (streptavidin beads, Western blot); DBD pull-down: streptavidin beads with biotinylated oligo, 3 h at 4 C; Figure 1A: 50 ng protein; buffer, salt and pH not in the material; ELISA per R&D kit. The conditions noted are these: protein: recombinant; tags: His; label: 5' biotin; annealed to complementary oligo. (In general: A western blot detects proteins with antibodies after separation by electrophoresis.)

The next series addresses WT p53 DBD (UniProt P04637 94-293). The series is described as above. The following applies: protein: recombinant; label: 5' biotin; annealed to complementary oligo.

Sequence of WT p53 full length (His-tagged) (P04637 whole entry): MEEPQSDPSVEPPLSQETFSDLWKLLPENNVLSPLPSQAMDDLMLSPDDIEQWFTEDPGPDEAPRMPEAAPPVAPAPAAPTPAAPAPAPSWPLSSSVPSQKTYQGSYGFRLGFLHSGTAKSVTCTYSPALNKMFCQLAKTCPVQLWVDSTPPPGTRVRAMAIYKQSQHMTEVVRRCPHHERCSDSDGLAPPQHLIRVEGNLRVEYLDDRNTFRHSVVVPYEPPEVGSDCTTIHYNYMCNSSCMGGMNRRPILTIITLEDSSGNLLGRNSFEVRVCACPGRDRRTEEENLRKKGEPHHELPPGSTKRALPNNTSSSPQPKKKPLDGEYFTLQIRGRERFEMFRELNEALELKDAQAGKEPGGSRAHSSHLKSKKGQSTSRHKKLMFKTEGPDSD
Sequence of WT p53 DBD (P04637 94-293): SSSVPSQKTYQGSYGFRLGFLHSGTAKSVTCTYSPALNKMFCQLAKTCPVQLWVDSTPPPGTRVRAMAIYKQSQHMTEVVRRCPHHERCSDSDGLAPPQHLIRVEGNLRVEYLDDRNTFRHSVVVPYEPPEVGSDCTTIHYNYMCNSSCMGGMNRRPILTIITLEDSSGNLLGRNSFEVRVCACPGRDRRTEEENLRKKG

B1: p53RE oligo (dsDNA)
DNA 1: CTGCTGAAGCTTCGAATTCCTAGACATGCCCAGACATGTCCTACTGCTGCTGCTGCTGCTGCTGCGAACATGTCCCAACATGTTGCTGCTGCTGCTGCTG
DNA 2: CAGCAGCAGCAGCAGCAACATGTTGGGACATGTTCGCAGCAGCAGCAGCAGCAGCAGTAGGACATGTCTGGGCATGTCTAGGAATTCGAAGCTTCAGCAG
In the case of B1, the binding result (in series [1]; with WT p53 DBD) was “binds” each time.
